Laboratory results from patent US20140050749A1 (PURDUE PHARMA L P, published 2014).
Where no end group is shown, it is not given here. [ ]: non-standard residue; d: D form. Gly(cPent) = N[C@H](C(=O)O)C1CCCC1

B1: K-[cpg]-RRAIEQL (peptide)
peptide: K[Gly(cPent)]RRAIEQL
notes: Survivin 130-138 derivative
B2: E-[c5g]-AGIG-[amv]-LTV (peptide)
peptide: EXAGIGXLTV
modifications: [c5g] (aminocyclopentyl carboxylic acid) at position 2; [amv] at position 7 (abbreviation not defined in the filing)
notes: MART-1 decamer derivative with a double substitution
B3: Native Survivin 19-27 peptide ISTFKNWPF (peptide)
peptide: ISTFKNWPF
B4: I-[cpg]-TFKNWPF (peptide)
peptide: I[Gly(cPent)]TFKNWPF
notes: Survivin 19-27 derivative
B5: Native Survivin 130-138 peptide KVRRAIEQL (peptide)
peptide: KVRRAIEQL
B6: A-[cpg]-GIGILTV (peptide)
peptide: AXGIGILTV
modifications: [cpg] (L-cyclopentylglycine) at position 2
notes: MART-1 nonamer derivative

target: T1, HLA-A2 (HLA-A0201) MHC class I complex (human); assay: ITopia soluble class I plate-based stability assay; reference is the native survivin peptide (SEQ ID NO: 31)
T1 construct: the methods section names HLA-A0201; also called HLA-A201; MHCI
Procedure: (§1) MHCI complexes were dissociated in each test well using stripping buffer, and the place-holder peptide and beta 2 microglobulin were washed away. 100 uM of the test peptide was added to appropriate wells along with additional beta 2 microglobulin and the anti-HLA ABC antibody, and the plates were incubated overnight at 21° C. Plates were washed, and fresh buffer was added to each well. Plates were shifted to 37° C., and the appropriate wells were read at 0, 0.5, 1, 1.5, 2, 4, 6 and 8 hours.

Binder | fold increase in the half life of the HLA-A2 peptide complex compared to the native survivin peptide [fold]
B1 | > 20

target: T1, HLA-A2 (HLA-A0201) MHC class I complex; assay: ITopia soluble class I plate-based stability assay, 37 C
Procedure: as §1

Binder | Half Life of Complex [h]
B2 | 11.9
B3 | 0.24
B4 | 1.9
B5 | 1.9
B1 | 50.6
B6 | > 100
